T1: hGAP43 (purified, unlabeled human growth-associated protein of 43 kDa) (human, UniProt P17677 1-238)
T1 construct: growth-associated protein of 43 kDa (GAP43, neuromodulin), human; also called unlabeled GAP43; neuromodulin; source: purified (details in Supplementary Methods)
T1 sequence (looked up): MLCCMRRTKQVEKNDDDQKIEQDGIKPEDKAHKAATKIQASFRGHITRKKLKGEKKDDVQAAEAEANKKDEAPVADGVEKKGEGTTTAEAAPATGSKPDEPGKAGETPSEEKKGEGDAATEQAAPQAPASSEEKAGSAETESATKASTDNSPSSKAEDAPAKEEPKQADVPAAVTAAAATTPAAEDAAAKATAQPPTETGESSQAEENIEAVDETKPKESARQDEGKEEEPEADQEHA


Columns and labels:
[1] = target: CB1R (type-1 cannabinoid receptor) (UniProt P21554); assay: BRET saturation, CB1R-RLuc and GFP-GAP43; settings: reference: GFP-GAP43 wild type; sites S41
[2] = target: T1, hGAP43 (purified, unlabeled human …); assay: fluorescence polarisation; fixed concentration of 5-IAF-labeled hCB1R-CTD, increasing concentrations of unlabeled hGAP43; 3 independent experiments; settings: both partners purified
RLuc-tagged CB1R = target: T2, RLuc-tagged CB1R (UniProt P21554 1-472); assay: FRET or BRET; BRET saturation in live HEK293T cells expressing CB1R-RLuc and increasing amounts of GFP-GAP43 forms; 3 independent experiments; settings: partners not purified
T2 construct: type-1 cannabinoid receptor (CB1R); also called CB1R-RLuc; source: HEK293T, transfected, in live cells

Row | Molecule | BRET50 (RLuc/GFP ratio that gives half-maximal BRET effect) (RLuc-tagged CB1R) | other results
1 | GAP43 (growth-associated protein of 43 kDa; neuromodulin) (from UniProt P17677) GFP-GAP43 S41D |  | other: BRET50 (RLuc/GFP ratio giving half-maximal BRET) [1]: stronger; reference 15.18 ± 4.53
2 | 5-(iodoacetamido)fluorescein-labeled hCB1R-CTD (domain or fragment, human, UniProt P21554 408-472, looked up, also: 5-(iodoacetamido)fluorescein label, position not given here, type-1 cannabinoid receptor (CB1R), human, C-terminal intracellular domain, amino acids 408-472; protein expression and purification are in the Supplementary Methods; also called 5-IAF-labeled CB1R-CTD; source: purified (recombinant; details in Supplementary Methods)) FRSMFPSCEGTAQPLDNSMGDSDCLHKHANNAASVHRAAESCIKSTVKIAKVTMSVSTDTSAEAL |  | Kd [2]: 38.2 µM
3 | GFP-GAP43(WT) (natural protein, UniProt P17677 1-238, looked up, growth-associated protein of 43 kDa (GAP43), wild type; In the co-IP and DMR experiments the text writes GAP43(WT) without GFP; source: HEK293T, transfected, in cells or lysate) MLCCMRRTKQVEKNDDDQKIEQDGIKPEDKAHKAATKIQASFRGHITRKKLKGEKKDDVQAAEAEANKKDEAPVADGVEKKGEGTTTAEAAPATGSKPDEPGKAGETPSEEKKGEGDAATEQAAPQAPASSEEKAGSAETESATKASTDNSPSSKAEDAPAKEEPKQADVPAAVTAAAATTPAAEDAAAKATAQPPTETGESSQAEENIEAVDETKPKESARQDEGKEEEPEADQEHA | 15.2 | 
4 | GFP-GAP43(S41D) (natural protein, UniProt P17677 1-238, looked up, growth-associated protein of 43 kDa (GAP43) with the phospho-mimetic point mutation S41D; In the co-IP and DMR experiments the text writes GAP43(S41D) without GFP; also called phospho-mimetic GAP43; source: HEK293T, transfected, in cells or lysate) MLCCMRRTKQVEKNDDDQKIEQDGIKPEDKAHKAATKIQADFRGHITRKKLKGEKKDDVQAAEAEANKKDEAPVADGVEKKGEGTTTAEAAPATGSKPDEPGKAGETPSEEKKGEGDAATEQAAPQAPASSEEKAGSAETESATKASTDNSPSSKAEDAPAKEEPKQADVPAAVTAAAATTPAAEDAAAKATAQPPTETGESSQAEENIEAVDETKPKESARQDEGKEEEPEADQEHA | 7.08 | 

— paper PMC10121561, “Control of a hippocampal recurrent excitatory circuit by cannabinoid receptor-interacting protein Gap43” (Nature Communications, 2023)
